Laboratory results: patent publication US20120316071A1 (published 2012)

Molecular target: T1, Recombinant Human DLL4 (R&D Systems Cat#1506-D4/CF) (human, UniProt Q9NR61 27-524)
T1 construct: Bought recombinant protein; also called delta-like protein 4; rHuman DLL4
Experiment: ECL (MSD) multispot binding assay, DLL4 spotted on plate, Fab in solution
Method: An 150 μl aliquot of 1% Bovine Serum Albumin (BSA) in Tris-buffered Saline Tween (TBST) was added to each well and allowed to incubate for 30 min at 20° C. followed by washing and tap drying to completely remove any residual solution. Subsequently, a 12.5 μl aliquot of 1% BSA TBST was added to each well followed by the addition of a 12.5 μl aliquot of a purified Fab. The plate was sealed and incubated for 1 hour at 20° C. with shaking
TAG-detection antibody at 25 μl was added to each well and allowed to incubate for 1 hour at 20° C. with shaking. Finally, 15 μl of Read Buffer P with Surfactant (Cat # R92PC-1, Meso Scale Discovery) was added to each well. The electrochemiluminescence was measured using a Sector Imager 2400 (Meso Scale Discovery). Data was analyzed by comparing the ECL signals for an antigen to the blank of each well. A signal to blank ratio of 4 or more was considered a “Hit” Fab.

Row | Binder | ECL signal | Signal/Blank
1 | Fab VH1-46_IGHD6-6*01_IGHJ1*01 S102A/S103P/S104F (APF) & L6_IGKJ1*01 S30L (Fab, V domains shown, Tested as a Fab; Expressed in E. coli from Plasmid A (CH1 with His6 and Flag tags) and Plasmid C (kappa CL); also called APF & S30L) VH: QVQLVQSGAEVKKPGASVKVSCKASGYTFTSYYMHWVRQAPGQGLEWMGIINPSGGSTSYAQKFQGRVTMTRDTSTSTVYMELSSLRSEDTAVYYCAREEYAPFSAEYFQHWGQGTLVTVSS VL: EIVLTQSPATLSLSPGERATLSCRASQSVLSYLAWYQQKPGQAPRLLIYDASNRATGIPARFSGSGSGTDFTLTISSLEPEDFAVYYCQQRSNWPPWTFGQGTKVEIKR | 1630 | 6.9
2 | Fab VH1-46_IGHD6-6*01_IGHJ1*01 S102A/S103P/S104F (APF) & L6_IGKJ1*01 S30R (Fab, V domains shown, Tested as a Fab; Expressed in E. coli from Plasmid A (CH1 with His6 and Flag tags) and Plasmid C (kappa CL); also called APF & S30R) VH: QVQLVQSGAEVKKPGASVKVSCKASGYTFTSYYMHWVRQAPGQGLEWMGIINPSGGSTSYAQKFQGRVTMTRDTSTSTVYMELSSLRSEDTAVYYCAREEYAPFSAEYFQHWGQGTLVTVSS VL: EIVLTQSPATLSLSPGERATLSCRASQSVRSYLAWYQQKPGQAPRLLIYDASNRATGIPARFSGSGSGTDFTLTISSLEPEDFAVYYCQQRSNWPPWTFGQGTKVEIKR | 745 | 7.8
3 | Fab VH1-46_IGHD6-6*01_IGHJ1*01 S102A/S103P/S104F (APF) & L6_IGKJ1*01 S30T (Fab, V domains shown, Tested as a Fab; Expressed in E. coli from Plasmid A (CH1 with His6 and Flag tags) and Plasmid C (kappa CL); also called APF & S30T) VH: QVQLVQSGAEVKKPGASVKVSCKASGYTFTSYYMHWVRQAPGQGLEWMGIINPSGGSTSYAQKFQGRVTMTRDTSTSTVYMELSSLRSEDTAVYYCAREEYAPFSAEYFQHWGQGTLVTVSS VL: EIVLTQSPATLSLSPGERATLSCRASQSVTSYLAWYQQKPGQAPRLLIYDASNRATGIPARFSGSGSGTDFTLTISSLEPEDFAVYYCQQRSNWPPWTFGQGTKVEIKR | 1020 | 4.9
4 | Fab VH1-46_IGHD6-6*01_IGHJ1*01 S102A/S103P/S104F (APF) & L6_IGKJ1*01 S30W (Fab, V domains shown, Tested as a Fab; Expressed in E. coli from Plasmid A (CH1 with His6 and Flag tags) and Plasmid C (kappa CL); also called APF & S30W) VH: QVQLVQSGAEVKKPGASVKVSCKASGYTFTSYYMHWVRQAPGQGLEWMGIINPSGGSTSYAQKFQGRVTMTRDTSTSTVYMELSSLRSEDTAVYYCAREEYAPFSAEYFQHWGQGTLVTVSS VL: EIVLTQSPATLSLSPGERATLSCRASQSVWSYLAWYQQKPGQAPRLLIYDASNRATGIPARFSGSGSGTDFTLTISSLEPEDFAVYYCQQRSNWPPWTFGQGTKVEIKR | 791 | 4.3
5 | Fab VH1-46_IGHD6-6*01_IGHJ1*01 S102A/S103P/S104F (APF) & L6_IGKJ1*01 Y32S (Fab, V domains shown, Tested as a Fab; Expressed in E. coli from Plasmid A (CH1 with His6 and Flag tags) and Plasmid C (kappa CL); also called APF & Y32S) VH: QVQLVQSGAEVKKPGASVKVSCKASGYTFTSYYMHWVRQAPGQGLEWMGIINPSGGSTSYAQKFQGRVTMTRDTSTSTVYMELSSLRSEDTAVYYCAREEYAPFSAEYFQHWGQGTLVTVSS VL: EIVLTQSPATLSLSPGERATLSCRASQSVSSSLAWYQQKPGQAPRLLIYDASNRATGIPARFSGSGSGTDFTLTISSLEPEDFAVYYCQQRSNWPPWTFGQGTKVEIKR | 1030 | 4.9
6 | Fab VH1-46_IGHD6-6*01_IGHJ1*01 S102A/S103P/S104F/H111F (APFF) & L6_IGKJ1*01 S28F (Fab, V domains shown, Tested as a Fab; Expressed in E. coli from Plasmid A (CH1 with His6 and Flag tags) and Plasmid C (kappa CL); also called APFF & S28F) VH: QVQLVQSGAEVKKPGASVKVSCKASGYTFTSYYMHWVRQAPGQGLEWMGIINPSGGSTSYAQKFQGRVTMTRDTSTSTVYMELSSLRSEDTAVYYCAREEYAPFSAEYFQFWGQGTLVTVSS VL: EIVLTQSPATLSLSPGERATLSCRASQFVSSYLAWYQQKPGQAPRLLIYDASNRATGIPARFSGSGSGTDFTLTISSLEPEDFAVYYCQQRSNWPPWTFGQGTKVEIKR | 134000 | 537
7 | Fab VH1-46_IGHD6-6*01_IGHJ1*01 S102A/S103P/S104F/H111F (APFF) & L6_IGKJ1*01 S28G (Fab, V domains shown, Tested as a Fab; Expressed in E. coli from Plasmid A (CH1 with His6 and Flag tags) and Plasmid C (kappa CL); also called APFF & S28G) VH: QVQLVQSGAEVKKPGASVKVSCKASGYTFTSYYMHWVRQAPGQGLEWMGIINPSGGSTSYAQKFQGRVTMTRDTSTSTVYMELSSLRSEDTAVYYCAREEYAPFSAEYFQFWGQGTLVTVSS VL: EIVLTQSPATLSLSPGERATLSCRASQGVSSYLAWYQQKPGQAPRLLIYDASNRATGIPARFSGSGSGTDFTLTISSLEPEDFAVYYCQQRSNWPPWTFGQGTKVEIKR | 183000 | 533
8 | Fab VH1-46_IGHD6-6*01_IGHJ1*01 S102A/S103P/S104F/H111F (APFF) & L6_IGKJ1*01 S28K (Fab, V domains shown, Tested as a Fab; Expressed in E. coli from Plasmid A (CH1 with His6 and Flag tags) and Plasmid C (kappa CL); also called APFF & S28K) VH: QVQLVQSGAEVKKPGASVKVSCKASGYTFTSYYMHWVRQAPGQGLEWMGIINPSGGSTSYAQKFQGRVTMTRDTSTSTVYMELSSLRSEDTAVYYCAREEYAPFSAEYFQFWGQGTLVTVSS VL: EIVLTQSPATLSLSPGERATLSCRASQKVSSYLAWYQQKPGQAPRLLIYDASNRATGIPARFSGSGSGTDFTLTISSLEPEDFAVYYCQQRSNWPPWTFGQGTKVEIKR | 124000 | 314
9 | Fab VH1-46_IGHD6-6*01_IGHJ1*01 S102A/S103P/S104F/H111F (APFF) & L6_IGKJ1*01 S28V (Fab, V domains shown, Tested as a Fab; Expressed in E. coli from Plasmid A (CH1 with His6 and Flag tags) and Plasmid C (kappa CL); also called APFF & S28V) VH: QVQLVQSGAEVKKPGASVKVSCKASGYTFTSYYMHWVRQAPGQGLEWMGIINPSGGSTSYAQKFQGRVTMTRDTSTSTVYMELSSLRSEDTAVYYCAREEYAPFSAEYFQFWGQGTLVTVSS VL: EIVLTQSPATLSLSPGERATLSCRASQVVSSYLAWYQQKPGQAPRLLIYDASNRATGIPARFSGSGSGTDFTLTISSLEPEDFAVYYCQQRSNWPPWTFGQGTKVEIKR | 83100 | 351
